The data set in a line: yeast display, Sf9 membrane polyspecificity reagent, FACS + sequencing; frameworks hold sequencing errors. A digest of the protocol: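 Synthetic nanobody libraries on Saccharomyces cerevisiae BJ5465 were galactose-induced for 36–48 hours, stained 1 hour at 4 °C with 10% biotinylated, detergent-solubilized Sf9 membrane reagent and enriched on streptavidin microbeads. FACS then separated cells into low and high (top ~1%) gates by anti-HA (expression) and streptavidin (reagent binding) fluorescence. Genes were colony-PCR amplified, MiSeq 2 × 250 sequenced and CDR-length filtered. A clone's polyreactivity label is that of its gate of origin.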
As to “QVQLVESGGGLVQAGGSLRLSCAASGLIFYIYAMGWYRQAPGKERELVAAITTGGRTNYADSVKGRFTISRDNAKNTVELQMNSLKPEDTAVYYCAKDFPIWISHGPDTDNDYWGQGTQVTVSS”, the “polyreactivity (PSR sort gate)” value is “low polyreactivity”. For “QVQLVESGGGLVQAGGSLRLSCAASGLIFYKNTMGWYRQAPGKERELVATITGRGGRTYYADSVKGRFTISRDIAKNSVYFQMNSLKPEDTAVYYCAARNQGRGYYWGQGTQVTVSS” the value was “high polyreactivity”. For “QVQLVESGGGLVQAGGSLRLSCAASGLIFYNYAMGWYRQAPGKERELVAAISSGGSTYYADSVKGRFTISRDNAKNTVYLQMNSLKPEDTAVYYCAASGPGYSRYTQYDSWGQGTQVTVSS” the value was “high polyreactivity”; for “QVQLVESGGGLVQAGGSLRLSCAASGLIFYNYAMGWYRQAPGKERELVAAITSGGSTYYADSVKGGFTISRDNAKNTVYLQMNSLKPEDTAVYYWAADLTYTVPFDYWGQGTQVTVSS”, “high polyreactivity”. For “QVQLVESGGGLVQAGGSLRLSCAASGLIFYPYAMGWYRQAPGKERELVAAISSGGSTNYADSVKGRFTISRDNAKNTVYLQMNSLKPEDTAVYYCAKRYPSFRGYGSFRYSGRKYWGQGTQVTVSS” the value was “high polyreactivity”; for “QVQLVESGGGLVQAGGSLRLSCAASGLIFYRNAMGWYRQAPGKERELVAGITRGSNTYYADSVKGRFTISRVNAKNTVYLQMNSLKPEDTAVYYCAAQVPVLQRAGNTRFGYWGQGTQVTVSS”, “low polyreactivity”. “QVQLVESGGGLVQAGGSLRLSCAASGLIFYRYTMGWYRQAPGKERELVAAISRRGGSTFYADSVKGRFTISRDNAKNTVYLQMNSLKPEDTAVYYCAAASWYRRKIYYSWGQGTQVTVSS”: the “polyreactivity (PSR sort gate)” value is reported as “high polyreactivity”. “QVQLVESGGGLVQAGGSLRLSCAASGLIFYRYVMGWYRQAPGKERELVASISTSGGRTYYADSVKGRFTISRDNAKNTVYLQMNSLKPEDTAVYYFAADFESYSRYYDGYDYWGQGTQVTVSS”: the “polyreactivity (PSR sort gate)” value is recorded as “high polyreactivity”. For “QVQLVESGGGLVQAGGSLRLSCAASGLIFYSNAMGWYRQAPGKEREFVAAITRRGGSTYYADSVKGRFTISRDNAKNTVYLQMNSLKPEDTAVYYCNARYYHKRSTRVIFQYDYWGQGTQVTVSS” the value was “high polyreactivity”; for “QVQLVESGGGLVQAGGSLRLSCAASGLIFYSYAMGWYRQAPGKERELVAAITGGGSTNYADSVKGRFTISRDNAKNTVYLPMHSLKPEDTAVYYCAAAFTLRKYDYWGQGTQVTVSS”, “low polyreactivity”.

For “QVQLVESGGGLVQAGGSLRLSCAASGLIFYTNAMGWYRQAPGKERELVAAIDRASTNYADSVKGRFTISRDNAKNTVYLQMNSLKPEDTAVYYCAAGAGRSTFTVGYWGQGTQVTVSS”, the “polyreactivity (PSR sort gate)” value is “low polyreactivity”. Consider “QVQLVESGGGLVQAGGSLRLSCAASGLIFYTYAMGWYRQAPGKEREFVAAISRRGGSTYYADSVKGRFTISRDNAKNTVYLQMNSLKPEDTAVYYCNARYTYPRPYEEYYYWGQGTQVTVSS”, for which the “polyreactivity (PSR sort gate)” value was “high polyreactivity”. As to “QVQLVESGGGLVQAGGSLRLSCAASGLIFYTYAMGWYRQAPGKERELVADINRSDGSTYYADSVKGRFTISRDNAKNTVYLQMNRLKPEDTAVYYCAVVGPYYSRFGGRYYYWGQGTQVTVSS”, the “polyreactivity (PSR sort gate)” value is recorded as “low polyreactivity”. Turning to “QVQLVESGGGLVQAGGSLRLSCAASGLIFYVYAMGWYRQAPGKERELVADISTAGGITNYADSVKGRFTISRDNAKNTVYLQMNSLKPEDTAVYYCAATQPWYNTRTRYGSWGQGTQVTVSS”, the “polyreactivity (PSR sort gate)” value is “low polyreactivity”.

For the sequence “QVQLVESGGGLVQAGGSLRLSCAASGLIFYVYAMGWYRQAPGKERELVASITWSGGRTYYADSVKGRFTISRDNAKNTVYLQMNSLKPEDTAVYFCAKDWWGGPPNVYHSEYEYWGQGTQVTVSS”, the “polyreactivity (PSR sort gate)” value is listed as “low polyreactivity”. For “QVQLVESGGGLVQAGGSLRLSCAASGLIIDGYAMGWYRQAPGKERELVATITVSGTSTYYADSVKGRFTISRDNAKNTVYLQMNSLKPEDTAVYYCATDRNYGYYFVEYDHDYWGQGTQVTVSS” the value was “low polyreactivity”; for “QVQLVESGGGLVQAGGSLRLSCAASGLIIPVYVMGWYRQAPGKERELVADITTVGSTYADSVKGRFTISRDNAKNTVYLQMNSLQPEDTAVYYCAADPPAPQYWWDHGNYWGQGTQVTVSS”, “low polyreactivity”; for “QVQLVESGGGLVQAGGSLRLSCAASGLILAPNAMGWYRQAPGKERELVAAITFRGVRTYYADSVKGRFTISRDNEKNTVYLQMNSLKPEDTAVYYCAAAVSKHYPYNYWGQGTQVSVSS”, “high polyreactivity”. Regarding “QVQLVESGGGLVQAGGSLRLSCAASGLILDGNAMGWYRTAPGKERELVAAITRSGGRTYYADSVKGRFTISRDNAKNTVYFQMNSLKPEDTAVYYCAALGWSGRYRYDYWGQGTQVTVSS”, the “polyreactivity (PSR sort gate)” value is recorded as “high polyreactivity”.

In the case of “QVQLVESGGGLVQAGGSLRLSCAASGLILGPYAMGWYRKAPGKERELVAAITRGGGTYYADSVKGRFTISRDNAKNTVYLQMNSLKPEDTAVYDCARIYYVSIYRYDYWGQGTQVTVSS”, the “polyreactivity (PSR sort gate)” value was “high polyreactivity”.

Consider “QVQLVESGGGLVQAGGSLRLSCAASGLILHKYAMGWYRQAPGKERELVASINSGANTNYADSVKGRFTISRDNAKNTVYLQMNSLKPEDTAVYYCNADPGFRDYYWGQGTQVNVSS”, for which the “polyreactivity (PSR sort gate)” value is on record as “low polyreactivity”. As for “QVQLVESGGGLVQAGGSLRLSCAASGLILKYYAMGWDRPAPGTEREFDAALTRRGGITYYADSVKGRFSISRDNAKNTVYLQMNSLKPEDTAVYYCAADPKLGSLAYWRYSYPLYDYWGQGTQVTVSS”, the entry is “low polyreactivity”; as for “QVQLVESGGGLVQAGGSLRLSCAASGLILNSYDMGWYRQAPGKERELVAAITRSGGNTFYADSVKGRFKISRDNAKNTVYLQMNSLNPEDTAVYYCNAYYTYWSQLYYWGQGTQVTVSS”, “high polyreactivity”. For “QVQLVESGGGLVQAGGSLRLSCAASGLILRYNGMGWYRQAPGKERELVAAISSNAGTTSYADSVKGRFTISRDNAKNTVYLQMNSLKPEDTAVYWGQGTQVTVSS”, the “polyreactivity (PSR sort gate)” value is given as “low polyreactivity”. As for “QVQLVESGGGLVQAGGSLRLSCAASGLILSRNTMGWYRQAPGKERELVAAITRRGGSTYYADSVKGRFTISRDNAKNTVYLQMNSLKPEDTAVYYCRLKVGTTSRWSYDYWGQGTQVTVSS”, the entry is “high polyreactivity”; as for “QVQLVESGGGLVQAGGSLRLSCAASGLILSSNAMGWYRQAPGKERELVATINRSGASTYYADSVKGRFTISRDNAKNTVYLQMNSLKPEDTAVYYCNTATSRAYRYDYWGQGSQVTVSS”, “low polyreactivity”; as for “QVQLVESGGGLVQAGGSLRLSCAASGLILVHYAMGWYRQAPGKERELVAAISAGGGSTYYADSVKGRFTISRDNAKNTVYLQMTSLKPEDTAVYYCNARVVNYFRPRTGAREYDYWGQGTQVTVSS”, “high polyreactivity”.

With “QVQLVESGGGLVQAGGSLRLSCAASGLILVYYAMGWYRQAPGKERELVAAITPGGSTKYADSVKGRFTISRDNAKNTVYLQMNSLKPEDTAVYYCYALSGPYWYSVYQSHQDDYWGQGTQVTVSS”, the “polyreactivity (PSR sort gate)” value is “low polyreactivity”. As for “QVQLVESGGGLVQAGGSLRLSCAASGLILYWYAMGWYRQAPGKERELVAAISISGGSTYYADSVKGRFTISRDNAKNTVYLQMNSLKPEDTAVYYCAAVYFYSWEGDGDYWGQGTQVTVSS”, the “polyreactivity (PSR sort gate)” value is recorded as “low polyreactivity”.

Regarding “QVQLVESGGGLVQAGGSLRLSCAASGLILYYYDMGWYRQAPGKERELVAAISWNGDDTYYADSVKGRFTISRDNAKNTVYLQMNSLKPEDTAVYYCAAEGPPQTDDYWGQATQVTVSS”, the “polyreactivity (PSR sort gate)” value is reported as “high polyreactivity”. “QVQLVESGGGLVQAGGSLRLSCAASGLISIFYTMGWYRQAPGKERELVAAITSGGSSTYYADSVKGRFTISRDNAKNTVYLQMNCLIPVDTAVYYCAAEPGFYYYWGQGTQVTVSS”: the “polyreactivity (PSR sort gate)” value is recorded as “low polyreactivity”. “QVQLVESGGGLVQAGGSLRLSCAASGLISWLYVMGWYRQAPGKERELVAAIRYSGGRTYYADSVKGRFTISRDNAKNTVYLQMNSLKPEDTAVYYCAAEEQVVKAHGDYWGQGTQVTVSS”: the “polyreactivity (PSR sort gate)” value was “low polyreactivity”. As for “QVQLVESGGGLVQAGGSLRLSCAASGLIVGGYTMGWYRQAPGKERELVAAIDSGGSTKYADSVKGRFTISRDNAKNTVYLQMNSLKPEDTAVYYCAARDYYAWRYRYHHEVSEFDYWGQGTQVTVSS”, the entry is “low polyreactivity”; as for “QVQLVESGGGLVQAGGSLRLSCAASGLIYWYAMGWYRQAPGKERELVAAISSNGGSTYYADSVKGRFTISRDNAKNTVYLQMNSLKPEDTAVYYCAAEDYYIYREPYDYWGQGTQVTVSS”, “low polyreactivity”; as for “QVQLVESGGGLVQAGGSLRLSCAASGLIYYRNAMGWYRQAPGKERELVAAISSDGSTYYADSVKGRFTISRDNPKNTVYLQMNSLKAEDTAVFYCAADYREFDAYGAARTLDFDYWGQGTQVTVSS”, “low polyreactivity”. As for “QVQLVESGGGLVQAGGSLRLSCAASGLIYYRYAMGWYRQAPGKERELVAAITTNGARTYYADSVKGRFTISRDNAKNTVYLQMNSLKPEDTAVYYCAAYGAGKFWAEHNYWGQGTQVTVSS”, the entry is “high polyreactivity”; as for “QVQLVESGGGLVQAGGSLRLSCAASGLNFVQYVMGWYRQATGKERELVAAITDDGNTYYADSVKGRFTISRDNAKNTVYLQMNSLKPEDTEVYYCNAVLRSYDFWPGYGYWGQGTQVTVSS”, “low polyreactivity”.

With “QVQLVESGGGLVQAGGSLRLSCAASGLNFWLNAMGWYRQAPGKERELVAAISRGGSTNYADSVKGRFTNSRDNAKNTVYLQMNSLKPEDTAVYYCAAGSRRAACYDYSYPYGYWGQGSQVTVSS”, the “polyreactivity (PSR sort gate)” value is on record as “high polyreactivity”. Turning to “QVQLVESGGGLVQAGGSLRLSCAASGLPFRFNALGWNRQAPGKERELVARISAGGGSTYYADSVKGRFTISRDNAKNTVYLQMNSLKPEDTAVYYCAVDKSTEFSSGPHVAGDDSWGQGTQVTVSS”, the “polyreactivity (PSR sort gate)” value was “low polyreactivity”. As for “QVQLVESGGGLVQAGGSLRLSCAASGLSSGFNVMGWYRQAPGKERELVAAIRSTGSPKYADSVKGRFTISRDNAKNTVYLQMNSLKPEDTAVYYCFRYSFYLNYWGQGTQVTVSS”, the entry is “high polyreactivity”.
